These are literature values, as cited in PMC7609432.

Read-outs that look alike come from different tables or passages of the source.

The target in data set [1] is IQGAP1 (Danio rerio). Briefly: SW-FCCS.
In data set [2] the target is IQGAP1 (Danio rerio). Briefly: SW-FCCS. The source holds these as a separate data set.

Sequence of IQGAP1 (Danio rerio) (P46940 2-1657): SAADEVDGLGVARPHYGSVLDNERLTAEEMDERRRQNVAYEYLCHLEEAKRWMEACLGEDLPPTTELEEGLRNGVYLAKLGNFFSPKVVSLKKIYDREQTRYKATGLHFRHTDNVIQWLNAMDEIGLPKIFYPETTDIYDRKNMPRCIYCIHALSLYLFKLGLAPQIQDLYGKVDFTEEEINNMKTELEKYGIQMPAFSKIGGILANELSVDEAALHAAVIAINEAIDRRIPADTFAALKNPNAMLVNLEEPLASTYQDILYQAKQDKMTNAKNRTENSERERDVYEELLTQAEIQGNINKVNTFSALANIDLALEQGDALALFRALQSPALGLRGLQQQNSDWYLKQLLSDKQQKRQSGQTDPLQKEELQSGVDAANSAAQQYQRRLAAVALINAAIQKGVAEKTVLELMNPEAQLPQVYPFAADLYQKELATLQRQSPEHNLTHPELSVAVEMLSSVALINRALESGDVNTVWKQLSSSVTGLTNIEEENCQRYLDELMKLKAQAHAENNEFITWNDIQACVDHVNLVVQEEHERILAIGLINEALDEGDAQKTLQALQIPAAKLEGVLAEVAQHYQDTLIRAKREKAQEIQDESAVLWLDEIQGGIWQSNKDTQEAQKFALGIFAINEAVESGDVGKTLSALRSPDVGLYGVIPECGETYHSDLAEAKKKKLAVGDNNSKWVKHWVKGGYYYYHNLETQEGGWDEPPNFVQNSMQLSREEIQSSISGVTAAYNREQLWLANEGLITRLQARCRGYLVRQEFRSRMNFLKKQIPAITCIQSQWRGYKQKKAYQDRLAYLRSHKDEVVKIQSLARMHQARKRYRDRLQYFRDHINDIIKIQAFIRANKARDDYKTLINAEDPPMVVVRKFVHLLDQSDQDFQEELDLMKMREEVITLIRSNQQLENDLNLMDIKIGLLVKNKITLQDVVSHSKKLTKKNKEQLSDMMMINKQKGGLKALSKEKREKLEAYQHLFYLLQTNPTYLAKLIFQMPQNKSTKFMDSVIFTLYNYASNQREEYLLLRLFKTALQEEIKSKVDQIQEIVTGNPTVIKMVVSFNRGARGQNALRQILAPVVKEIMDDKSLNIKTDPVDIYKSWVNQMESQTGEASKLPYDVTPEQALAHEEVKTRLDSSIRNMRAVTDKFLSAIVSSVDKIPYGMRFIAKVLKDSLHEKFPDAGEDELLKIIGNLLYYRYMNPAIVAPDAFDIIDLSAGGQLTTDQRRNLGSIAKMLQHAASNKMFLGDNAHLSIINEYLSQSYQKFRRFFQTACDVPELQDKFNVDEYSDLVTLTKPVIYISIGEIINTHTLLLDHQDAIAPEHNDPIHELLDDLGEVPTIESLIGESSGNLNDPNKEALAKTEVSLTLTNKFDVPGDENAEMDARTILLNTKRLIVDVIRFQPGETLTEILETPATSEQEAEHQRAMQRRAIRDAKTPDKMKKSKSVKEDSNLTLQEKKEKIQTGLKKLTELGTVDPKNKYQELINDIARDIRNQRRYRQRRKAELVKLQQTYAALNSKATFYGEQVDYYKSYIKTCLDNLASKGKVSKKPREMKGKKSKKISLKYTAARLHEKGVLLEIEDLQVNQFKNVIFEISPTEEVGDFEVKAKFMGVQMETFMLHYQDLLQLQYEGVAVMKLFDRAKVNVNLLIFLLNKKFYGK

Cdc42 (from UniProt P60953): the values for the Kd in the data set with IQGAP1 (Danio rerio) [1] and with IQGAP1 (Danio rerio) [2] were over 1.5 µM and 0.105 µM, respectively.
